Positions count from the first letter of the chain named. Several values for one entry are separate records, joined by “and”; a condition that tells them apart may be missing. Identical values can stand only once.
T1: human GIP receptor (hGIPr) (Homo sapiens, UniProt P48546)
T1 construct: expressed in transfected cells
T1 sequence (P48546 22-466): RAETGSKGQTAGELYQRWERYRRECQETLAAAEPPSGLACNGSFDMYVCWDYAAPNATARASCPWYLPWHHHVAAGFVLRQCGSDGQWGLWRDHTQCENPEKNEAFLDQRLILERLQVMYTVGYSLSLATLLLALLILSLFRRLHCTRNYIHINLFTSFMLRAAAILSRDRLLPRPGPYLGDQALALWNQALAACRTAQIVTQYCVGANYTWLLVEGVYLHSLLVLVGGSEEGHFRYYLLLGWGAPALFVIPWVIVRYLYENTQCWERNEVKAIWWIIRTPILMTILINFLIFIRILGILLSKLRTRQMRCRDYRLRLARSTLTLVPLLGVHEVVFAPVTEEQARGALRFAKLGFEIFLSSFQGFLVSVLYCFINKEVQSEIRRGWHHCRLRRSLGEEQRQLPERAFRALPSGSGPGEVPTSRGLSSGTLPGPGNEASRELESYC

T2: mouse GLP-1 receptor (mGLP-1r) (Mus musculus, UniProt O35659)
T2 construct: expressed in transfected cells; host or cells: HEK293s or CHO cells
T2 sequence (O35659 22-463): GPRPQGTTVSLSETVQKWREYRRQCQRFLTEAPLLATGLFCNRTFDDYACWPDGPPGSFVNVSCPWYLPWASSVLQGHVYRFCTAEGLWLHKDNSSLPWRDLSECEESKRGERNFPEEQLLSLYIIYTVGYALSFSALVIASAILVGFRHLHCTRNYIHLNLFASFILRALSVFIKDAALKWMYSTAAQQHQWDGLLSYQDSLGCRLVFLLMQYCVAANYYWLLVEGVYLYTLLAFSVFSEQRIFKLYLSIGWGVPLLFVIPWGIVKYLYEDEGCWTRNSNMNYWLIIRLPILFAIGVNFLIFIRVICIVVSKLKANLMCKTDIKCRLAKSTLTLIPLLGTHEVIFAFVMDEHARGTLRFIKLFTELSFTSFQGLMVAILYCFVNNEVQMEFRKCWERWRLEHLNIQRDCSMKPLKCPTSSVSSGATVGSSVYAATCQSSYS

T3: mouse GIP receptor (mGIPr) (Mus musculus, UniProt Q0P543)
T3 construct: expressed in transfected cells; host or cells: HEK293s or CHO cells
T3 sequence (Q0P543 19-460): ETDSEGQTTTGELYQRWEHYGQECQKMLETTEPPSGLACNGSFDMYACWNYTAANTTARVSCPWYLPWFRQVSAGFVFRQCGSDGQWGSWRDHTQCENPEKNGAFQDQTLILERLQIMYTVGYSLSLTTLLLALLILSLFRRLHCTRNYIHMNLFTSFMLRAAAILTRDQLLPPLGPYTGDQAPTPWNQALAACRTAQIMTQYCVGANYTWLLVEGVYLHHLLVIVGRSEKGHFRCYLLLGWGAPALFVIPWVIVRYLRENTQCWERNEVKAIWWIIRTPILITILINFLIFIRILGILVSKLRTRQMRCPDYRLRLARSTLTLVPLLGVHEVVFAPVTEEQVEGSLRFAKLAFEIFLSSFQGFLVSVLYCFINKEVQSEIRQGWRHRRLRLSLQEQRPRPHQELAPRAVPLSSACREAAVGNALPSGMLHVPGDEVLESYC

T4: rat GLP-1 receptor (rGLP-1r) (Rattus norvegicus, UniProt P32301)
T4 construct: expressed in transfected cells; host or cells: HEK293s or CHO cells
T4 sequence (P32301 22-463): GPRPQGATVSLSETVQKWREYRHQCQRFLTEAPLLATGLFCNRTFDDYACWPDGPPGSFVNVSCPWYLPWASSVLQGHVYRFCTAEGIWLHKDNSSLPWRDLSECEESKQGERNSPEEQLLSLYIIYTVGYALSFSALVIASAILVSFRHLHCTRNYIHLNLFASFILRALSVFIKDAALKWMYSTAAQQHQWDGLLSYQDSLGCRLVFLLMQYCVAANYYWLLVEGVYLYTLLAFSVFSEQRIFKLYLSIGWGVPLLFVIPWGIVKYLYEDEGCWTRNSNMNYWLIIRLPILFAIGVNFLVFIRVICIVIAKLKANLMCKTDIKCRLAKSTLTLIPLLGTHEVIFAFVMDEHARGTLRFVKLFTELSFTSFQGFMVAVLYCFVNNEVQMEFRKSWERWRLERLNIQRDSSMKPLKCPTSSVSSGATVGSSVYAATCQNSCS

T5: rat GIP receptor (rGIPr) (Rattus norvegicus, UniProt P43219)
T5 construct: expressed in transfected cells; host or cells: HEK293s or CHO cells
T5 sequence (P43219 19-455): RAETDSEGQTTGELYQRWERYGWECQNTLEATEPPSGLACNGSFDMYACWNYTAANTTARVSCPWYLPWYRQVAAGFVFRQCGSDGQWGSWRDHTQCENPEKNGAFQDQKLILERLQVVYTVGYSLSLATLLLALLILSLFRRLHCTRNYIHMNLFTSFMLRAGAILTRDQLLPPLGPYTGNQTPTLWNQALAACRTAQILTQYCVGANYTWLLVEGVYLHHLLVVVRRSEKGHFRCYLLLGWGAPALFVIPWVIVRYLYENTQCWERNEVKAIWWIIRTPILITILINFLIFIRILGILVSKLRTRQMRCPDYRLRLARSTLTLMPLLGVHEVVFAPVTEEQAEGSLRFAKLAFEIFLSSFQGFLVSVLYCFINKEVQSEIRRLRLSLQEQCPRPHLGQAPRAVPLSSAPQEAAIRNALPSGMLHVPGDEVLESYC

B1: IP207 (protein)
chain: YAEGTFISDYSIAMDKIHQQDFVNWLLAQKGKKNDWKHNITQAAAGGSGSTASSGSGSATGGGGAATHTCPPCPAPELL
modifications: /note=“Description of Artificial Sequence Synthetic Peptide-linker-hinge polypeptide”
B2: IP146 (protein)
chain: HGEGTFTSDVSSYLEGQAAKEFIAWLVKGAAAGGSGSTASSGSGSATGGGGAACPPCPAPEF
modifications: /note=“Description of Artificial Sequence Synthetic Peptide-linker-hinge polypeptide”
B3: IP170 (protein)
chain: YSEGTFTSDVSSYMERQAIDEFIAWLLKGGAAAGGSGSTASSGSGSATGGGGAATHTCPPCPAPEF
modifications: /note=“Description of Artificial Sequence Synthetic Peptide-linker-hinge polypeptide”
B4: IP203 (protein)
chain: B3 chain with Y1H, S2G, M14L, R16G, I19A, D20K, L27V
modifications: /note=“Description of Artificial Sequence Synthetic Peptide-linker-hinge polypeptide”
B5: IP250 (protein)
chain: B3 chain with S12I, Y13A, E15D
modifications: /note=“Description of Artificial Sequence Synthetic Peptide-linker-hinge polypeptide”
B6: IP226 (protein)
chain: B3 chain with S12K, Y13L, M14L
modifications: /note=“Description of Artificial Sequence Synthetic Peptide-linker-hinge polypeptide”
B7: IP209 (protein)
chain: B3 chain with V10Y
modifications: /note=“Description of Artificial Sequence Synthetic Peptide-linker-hinge polypeptide”
B8: IP223 (protein)
chain: B3 chain with R16E, Q17E
modifications: /note=“Description of Artificial Sequence Synthetic Peptide-linker-hinge polypeptide”
B9: IP015 (protein)
chain: HGEGTFTSDVSSYLEGQAAKEFIAWLVKGAAAGGSGSTASSGSGSATGGGGAATHTCPPCPAPEF
modifications: /note=“Description of Artificial Sequence Synthetic Peptide-linker-hinge polypeptide”
B10: IP188 (protein)
chain: YSEGTFISDYSIAMDKIHQQDFVNWLLAQKAPPGGGGGSGGGGSGGGGSGGGGSATHTCPPCPAPEF
modifications: /note=“Description of Artificial Sequence Synthetic Peptide-linker-hinge polypeptide”

biological target: T6, human GLP-1 receptor (hGLP-1r) (Homo sapiens, UniProt P43220); assay: BSA-cAMP assay, cells expressing human GLP-1 receptor; format: cell-based; conditions: BSA-cAMP assay; batch 1 unless a batch is given; read-out: cAMP activity hGLP1r (EC50)
T6 construct: expressed in transfected cells
Method: (§1) One basic cAMP assays was performed, differing in the medium used for the assay, the “BSA-cAMP assay”:
(§2) BSA-based assay medium: 0.1% bovine serum albumin (BSA) in
(§3) In certain aspects, the assay can also be carried out in medium supplemented with serum albumin that corresponds to the receptor being tested, e.g., human serum albumin for testing cAMP activity at hGIPr or hGLP-1r, rat serum albumin for testing cAMP activity at rGIPr or rGLP-1r, and so on. […] All sample dilutions were made in duplicate.
(§4) A frozen cryo-vial of cells expressing the receptor of interest was thawed rapidly in a water-bath, transferred to pre-warmed assay media and spun at 240×g for 5 minutes. Cells were re-suspended in assay buffer at an optimized concentration (e.g., hGLP-1r and hGIPr cells at 0.5×10^5 cells/ml).
(§5) To this, 5 μL cell suspension was added and the plates incubated at room temperature for 30 minutes.
(§6) cAMP levels were measured using a commercially available cAMP dynamic 2 HTRF kit (Cisbio, Cat #62AM4PEJ), following the two step protocol as per manufacturer's recommendations. In brief; anti-cAMP cryptate (donor fluorophore) and cAMP-d2 (acceptor fluorophore) were made up separately by diluting each 1/20 in conjugate & lysis buffer provided in the kit. 5 μL anti-cAMP cryptate was added to all wells of the assay plate, and 5 μL cAMP-d2 added to all wells except non-specific binding (NSB) wells, to which conjugate and lysis buffer was added. […] Data was transformed to % Delta F as described in manufacturer's guidelines and then transformed to percent activation of maximal native agonist response and analysed by 4-parameter logistic fit to determine EC50 values.
(§7) We used unconstrained 4 parameter logistic fit of data, curve mid-point to determine EC50. This was tested on two occasions, not two batches.

T6 sequence (P43220 24-463): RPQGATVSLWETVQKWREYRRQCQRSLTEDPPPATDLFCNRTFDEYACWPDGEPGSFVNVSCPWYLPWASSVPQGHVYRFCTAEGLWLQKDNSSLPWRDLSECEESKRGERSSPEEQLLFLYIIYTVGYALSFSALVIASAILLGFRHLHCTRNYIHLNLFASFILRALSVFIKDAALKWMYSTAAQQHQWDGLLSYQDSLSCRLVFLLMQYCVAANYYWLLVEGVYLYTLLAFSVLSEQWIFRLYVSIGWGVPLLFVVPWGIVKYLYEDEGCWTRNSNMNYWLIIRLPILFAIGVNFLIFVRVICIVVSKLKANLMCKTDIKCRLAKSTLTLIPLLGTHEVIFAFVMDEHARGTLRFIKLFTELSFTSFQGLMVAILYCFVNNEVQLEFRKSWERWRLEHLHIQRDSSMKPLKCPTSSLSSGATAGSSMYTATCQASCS

Row | EC50 | Molecule
1 | 4100 nM | B1
2 | 0.049 nM | B2
3 | 0.12 nM | B3
4 | 0.042 nM | B4
5 | 1.1 nM | B5
6 | 0.2 nM | B6
7 | 0.23 nM and 0.2 nM | B7
8 | 16 nM | B8
9 | 0.041 nM and 0.023 nM and 0.038 nM | B9
10 | 500 nM | B10

biological target: T1, human GIP receptor (hGIPr); assay: BSA-cAMP assay, cells expressing human GIP receptor; format: cell-based; conditions: BSA-cAMP assay; batch 1 unless a batch is given; read-out: cAMP activity hGIPr (EC50)
Method: For human GIPr, two different lines were used, shown as “hGIPr” and “hGIPr (C3)” in Table 11.
as §1, §2, §3, §4, §5, §6, §7

Row | EC50 | Molecule
11 | 0.0085 nM and 0.0078 nM | B1
12 | 83 nM | B2
13 | 0.079 nM | B3
14 | 110 nM | B4
15 | 0.11 nM | B5
16 | 0.025 nM | B6
17 | 2.5 nM | B8
18 | 27 nM | B9
19 | 0.0038 nM | B10

biological target: T7, human glucagon receptor (GCGr) (Homo sapiens, UniProt P47871); assay: BSA-cAMP assay, cells expressing human glucagon receptor; format: cell-based; conditions: batch 1 unless a batch is given, read-out: cAMP activity hGCGr (EC50)
T7 construct: expressed in transfected cells; host or cells: HEK293s or CHO cells
Method: as §1, §2, §3, §4, §5, §6, §7

T7 sequence (P47871 26-477): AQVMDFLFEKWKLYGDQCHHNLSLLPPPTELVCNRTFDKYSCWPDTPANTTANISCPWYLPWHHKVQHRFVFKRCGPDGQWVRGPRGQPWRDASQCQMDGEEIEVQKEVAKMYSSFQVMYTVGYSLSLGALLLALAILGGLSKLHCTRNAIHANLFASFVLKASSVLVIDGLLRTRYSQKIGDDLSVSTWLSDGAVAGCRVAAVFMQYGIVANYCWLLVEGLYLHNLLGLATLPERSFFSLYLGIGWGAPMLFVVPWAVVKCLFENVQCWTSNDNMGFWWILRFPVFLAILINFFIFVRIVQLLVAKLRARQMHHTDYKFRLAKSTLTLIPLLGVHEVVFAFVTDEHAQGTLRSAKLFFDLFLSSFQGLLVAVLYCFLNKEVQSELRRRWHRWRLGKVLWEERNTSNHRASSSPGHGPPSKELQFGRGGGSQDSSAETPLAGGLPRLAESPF

Row | EC50 [nM] | Molecule
20 | 900 | B1
21 | 650 | B2
22 | > 650 | B4
23 | > 6270 | B7
24 | 350 | B10

biological target: T2, mouse GLP-1 receptor (mGLP-1r); assay: BSA-cAMP assay, cells expressing mouse GLP-1 receptor; format: cell-based; conditions: BSA-cAMP assay; read-out: cAMP activity mGLP1r (EC50)
Method: as §1, §2, §3, §4, §5, §6, §7
(§8) In order to be able to carry out in vivo studies in rodents, IP088 was tested for potency against the mouse receptors mGIPr and mGLP-1r as well as the rat receptors rGIPr and rGLP-1r, using cells expressing the respective receptors in the cAMP assay described above.

Row | EC50 | Molecule
25 | 0.85 nM | B3
26 | 22 nM | B5
27 | 1 nM | B6
28 | 0.84 nM and 1.6 nM | B7
29 | 80 nM | B8
30 | 0.13 nM | B9

biological target: T3, mouse GIP receptor (mGIPr); assay: BSA-cAMP assay, cells expressing mouse GIP receptor; format: cell-based; conditions: BSA-cAMP assay; read-out: cAMP activity mGIPr (EC50)
Method: as §1, §2, §3, §4, §5, §6, §7, §8

Row | EC50 [nM] | Molecule
31 | 34 | B3
32 | 35 | B5
33 | 7.5 | B6

biological target: T4, rat GLP-1 receptor (rGLP-1r); assay: BSA-cAMP assay, cells expressing rat GLP-1 receptor; format: cell-based; conditions: BSA-cAMP assay; read-out: cAMP activity rGLP1r (EC50)
Method: as §1, §2, §3, §4, §5, §6, §7, §8

Row | EC50 | Molecule
34 | 0.06 nM | B3
35 | 2.2 nM | B5
36 | 0.061 nM | B6
37 | 0.075 nM and 0.091 nM | B7
38 | 18 nM | B8
39 | 0.014 nM | B9

biological target: T5, rat GIP receptor (rGIPr); assay: BSA-cAMP assay, cells expressing rat GIP receptor; format: cell-based; conditions: BSA-cAMP assay; read-out: cAMP activity rGIPr (EC50)
Method: as §1, §2, §3, §4, §5, §6, §7, §8

Row | EC50 [nM] | Molecule
40 | 2.3 | B3
41 | 5.3 | B5
42 | 0.27 | B6
43 | 72 | B8
